Assay type in all cases: in vivo, Balb/c mice
Data set [1] deals with normal mice. In words: Test 2: spleen weight. Here is the method: (§1) The clean grade of the Balb/c mice, weighed from 16 to 18 g, were used and randomly grouped, 7-10 mice per group. The tests were carried out in two batches.
(§2) The mice were divided into 4 groups.
(§3) The mice in each group were sacrificed on the eleventh day.
(§4) The detection indexes were as follows: • (1) The counts of the peripheral blood leucocytes of the mice in each group were determined on the first day (no drug was administered), the 3rd, 5th, 7th, 9th and 11th day. • (2) The counts of marrow karyotes (BMNC) of the mice in each group were determined on the 11th day. • (3) The weights of the spleens of the mice in each group were determined on the 11th day.

Data set [2] relates to normal mice. Kind of data set: Test 2: marrow karyote count of the thighbone. The following applies: 11th day, Test 2, simultaneous administration; x±SE. Here is the method: as §1, §2, §3, §4
Data set [3] concerns normal mice. Kind of data set: Test 1: peripheral blood cell counts, sOGP for 5 days then sOGP and rhG-CSF co-administered. Here is the method:
as §1, §2
(§5) The mice in each group were sacrificed on the 14th day.
(§6) The detection indexes were as follows: • (1) The counts of the peripheral blood leucocytes (WBC), the peripheral blood lymphocytes (LY), red blood cells (RBCs) and the change of platelet were determined for each group on the first day (no drug was administered), the 5th, 8th, 10th, 12th and 14th day. • (2) The counts of marrow karyotes (BMNC) of the mice in each group and the change of the classification of the marrow were determined on the 14th day. • (3) The sections of the sternum of the mice in each group were determined on the 14th day. • (4) The weights of the spleens of the mice in each group and the sections of the […] were determined on the 14th day.

Data set [4] concerns normal mice. Kind of data set: Test 1: spleen weight. The method, then: as §1, §2, §5, §6
Data set [5] has as its system normal mice. In words: Test 1: pathologic observation of spleen sections. Conditions: 14th day, Test 1, FIG. 4. The method, then:
as §1, §2, §5, §6

Data set [6] has as its system normal mice. Kind of data set: Test 1: pathologic observation of breastbone (sternum) sections. Conditions: 14th day, Test 1, FIG. 3. Here is the method:
as §1, §2, §5, §6

Data set [7] concerns normal mice. Kind of data set: Test 1: marrow karyote count and classification of the thighbone. The following applies: 14th day, x±SE. The method, then: as §1, §2, §5, §6
Where [8] appears, read: Test 1, sOGP 5 days then co-administration, x±SE.

B1: rhG-CSF: commercially available recombinant human granulocyte colony stimulating factor (protein, UniProt P09919 31-207, looked up)
Granulocyte …: TPLGPASSLPQSFLLKCLEQVRKIQGDGAALQEKLVSECATYKLCHPEELVLLGHSLGIPWAPLSSCPSQALQLAGCLSQLHSGLFLYQGLLQALEGISPELGPTLDTLQLDVADFATTIWQQMEELGMAPALQPTQGAMPAFASAFQRRAGGVLVASHLQSFLEVSYRVLRHLAQP
The molecule B1 returned a spleen weight with normal mice [1] (11th day, Test 2, simultaneous administration, x±SE) of 0.244 ± 0.017 g. For the same molecule, in the data set on normal mice [1] (Test 2, Table 5), the “spleen weight compared with the other two groups (control, sOGP)” value is given as “significantly higher”. Further, the karyote number/thighbone with normal mice [2] was 1.75 ± 0.12 ×10^7. In addition, in the data set on normal mice [3] (setting [8]), the “% leucocyte granulocyte” value turned out to be 70.39 ± 1.54% and the “% leucocyte lymphocyte” value amounted to 29.61 ± 1.54%. In the data set with normal mice [3] (Test 1, x±SE), the leucocyte was 17.59 ± 1.59 ×10^6/ml, the platelet was 505.43 ± 35.34 ×10^6/ml and the red blood cell is 6.68 ± 0.10 ×10^9/ml. Also, the spleen weight in the data set on normal mice [4] (14th day, Test 1, x±SE) came to 0.252 ± 0.007 g. Further, the “spleen weight compared with the other two groups (control, sOGP)” value in the data set on normal mice [4] (Test 1, Table 3) is recorded as “significantly higher”. Further, in the data set on normal mice [5], the “spleen section: matured granulocytes as share of the granulocytes” value was “about 60%”, the “spleen section: megakaryocyte cell line” value is recorded as “moderately proliferated”, the “spleen section: red matter” value was “proliferated moderately” and the “spleen section: white matter” value was “lightly to moderately shrunk”. The “pathologic observation of bone marrow cells in breastbone section” value with normal mice [6] is “the proliferation of the bone marrow cells and the ratios among the three cell lines were normal”. Moreover, the karyote/thighbone in the data set with normal mice [7] was 1.90 ± 0.13 ×10^7. Also, in the data set with normal mice [7] (thighbone marrow), the “marrow: early erythroblast” value is 2.50 ± 0.33%; the “marrow: intermediate erythroblast” value was found to be 12.13 ± 1.92%; the “marrow: late erythroblast” value is recorded as 16.00 ± 2.11%; the “marrow: lymphocyte, plasma cell” value is 19.38 ± 2.00%. In the data set on normal mice [7] (thighbone marrow), the “marrow: matured granulocyte” value was 30.83 ± 2.77%; the “marrow: myelocyte, metamyelocyte” value stood at 11.00 ± 1.00%; the “marrow: primitive granulocyte” value was 0.63 ± 0.36%; the “marrow: promyelocyte” value was 1.88 ± 0.44%.

The values are drawn from patent US20050249698A1 (priority 2002, published 2005).
